The assay concerns the target T1, chicken ubiquitin-specific protease 1, chUSP1^GG680,681AA double mutant (full-length control) (chicken, UniProt F1NPR3 1-794, G680A | G681A).
T1 sequence (looked up): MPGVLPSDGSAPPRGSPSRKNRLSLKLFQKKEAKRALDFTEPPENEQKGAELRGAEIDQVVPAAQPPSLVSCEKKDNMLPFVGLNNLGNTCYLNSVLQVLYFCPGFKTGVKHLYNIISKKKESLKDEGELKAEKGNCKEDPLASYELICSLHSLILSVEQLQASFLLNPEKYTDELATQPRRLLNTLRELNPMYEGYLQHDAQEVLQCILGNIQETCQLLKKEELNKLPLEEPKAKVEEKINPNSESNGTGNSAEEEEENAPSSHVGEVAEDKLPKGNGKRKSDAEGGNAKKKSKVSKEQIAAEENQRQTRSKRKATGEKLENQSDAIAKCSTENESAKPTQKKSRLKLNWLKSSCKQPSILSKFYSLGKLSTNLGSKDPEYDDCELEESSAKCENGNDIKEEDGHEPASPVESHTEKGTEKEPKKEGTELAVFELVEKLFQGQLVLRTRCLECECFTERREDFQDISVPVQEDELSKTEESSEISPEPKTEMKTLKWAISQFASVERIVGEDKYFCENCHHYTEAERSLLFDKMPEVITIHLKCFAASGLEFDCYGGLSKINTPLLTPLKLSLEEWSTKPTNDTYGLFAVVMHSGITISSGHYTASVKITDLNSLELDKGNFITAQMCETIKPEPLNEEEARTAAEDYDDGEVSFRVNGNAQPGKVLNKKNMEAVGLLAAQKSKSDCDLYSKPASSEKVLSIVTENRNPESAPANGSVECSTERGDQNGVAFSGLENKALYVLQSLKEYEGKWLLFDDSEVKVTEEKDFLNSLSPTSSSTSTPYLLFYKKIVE
As to the kind of experiment: cell-based or functional assay.

Where only a bound is given, the exact number is not on record here.

B1: chicken USP associated factor 1, untagged (natural protein)
chain: not shown
B1: the “KM of chUSP1^FL (hydrolysis of Ub-AMC) in the presence of chUAF1 against chUSP1^FL alone, fold decrease” value worked out at 2.87 fold; the “deubiquitination activity (kcat/KM, hydrolysis of Ub-AMC) of chUSP1^FL/chUAF1 against chUSP1^FL alone” value was found to be 54 fold; the “deubiquitination activity of 125 nM chUSP1^FL (AMC fluorescence from 100 nM Ub-AMC) three minutes after the addition of 125 nM chUAF1, against the control without chUAF1” value is over 2 fold; the “kcat of chUSP1^FL (hydrolysis of Ub-AMC) in the presence of chUAF1 against chUSP1^FL alone” value was 21 fold.

Values taken from article PMC5665528, “Characterization of the deubiquitination activity and substrate specificity of the chicken ubiquitin-specific protease 1/USP associated factor 1 complex” (PLoS ONE, 2017).
